A short description of the series: isoelectric point (pI) as stated. It counts as physicochemical. As to the method: For the second study this procedure was modified to include a chromatographic enrichment/purification step over a HiTrap SP-Sepharose cation exchange column (GE Healthcare). Both MCPT-201 and alpha cobratoxin are highly positively charged proteins with a pI of 8.2. They are routinely purified on cation exchange resigns such as SP-Sepharose. The sample buffer in the Franz cell receiving chamber was changed to 50 mM MES-NaOH, 20 mM NaCl, 0.1 mM EDTA, pH 6.0 in order to make samples directly compatible with cation exchange chromatography over SP-Sepharose.

The substance alpha cobratoxin gave a pI of 8.2.

(Values after US11752086B2, “Topical formulations and methods” (MYOCEPT INC., priority 2017, dated 2023).)
